These results are taken from the RNAGym collection of RNA variant scans (doi:10.1021/acssynbio.7b00057).

Sequences and labels used below:
B1: Pistol ribozyme (parent)
chain: GGGUCGUUGUUCCAUAAUCGCGUGGAUAUGGCACGCAAGUUUCUACCGGGCACCGUAAAUGUCCGACUGGAGCCGUUCGGGCGGCUAUAAACAGACCUCAGGCCCGAAGCGUGGCGGCACCUGCCGCCGGUGGUAAAAAAGAUCGGAAGAGCACACGUCU

In the data set the parent is B1. Briefly: aptazyme ON/OFF ratio, guanine; higher = stronger switching; co-transcriptional cleavage with and without guanine.
Regarding U10A U11G C12G C13U, the “aptazyme ON/OFF ratio” value worked out at 1.43.
U10A U11G C12G C13G: the “aptazyme ON/OFF ratio” value amounted to 1.42.
As to U10A U11G C12G C13A, the “aptazyme ON/OFF ratio” value was determined as 1.27.
The result for U10C C12U C13A reads 1.13; that for U10C C12U C13G, 1.1; that for U10C C12U C13U, 1.21.
In the case of U10A U11G C12A C13G, the “aptazyme ON/OFF ratio” value is 1.23.
The result for U10A U11G C12A C13U reads 1.46; that for U10A U11G C12A C13A, 1.04; that for U10G U11A C12G, 1.4.
With U10G U11A C12U, the “aptazyme ON/OFF ratio” value worked out at 1.15.
For U10G U11A C12A, the “aptazyme ON/OFF ratio” value was 1.39.
Turning to U10C C13U, the “aptazyme ON/OFF ratio” value is 1.08.
The value for U10C C13G was 1.05.
The value for U10C C13A was 1.06.
With U10G U11A C12A C13A, the “aptazyme ON/OFF ratio” value turned out to be 1.11.
Consider U10G U11A C12A C13U, for which the “aptazyme ON/OFF ratio” value worked out at 1.27.
Regarding U10G U11A C12A C13G, the “aptazyme ON/OFF ratio” value was found to be 1.06.
In the case of U10G U11G C12A C13G, the “aptazyme ON/OFF ratio” value came out at 1.11.
Turning to U10G U11G C12A C13A, the “aptazyme ON/OFF ratio” value worked out at 1.15.
Consider U10G U11G C12A C13U, for which the “aptazyme ON/OFF ratio” value came out at 1.22.
With U10A U11A C13G, the “aptazyme ON/OFF ratio” value amounted to 1.12.
U10A U11A C13A: the “aptazyme ON/OFF ratio” value worked out at 1.31.
U10A U11A C13U: the “aptazyme ON/OFF ratio” value was determined as 1.35.
Turning to U10A U11A C12G C13U, the “aptazyme ON/OFF ratio” value was 1.23.
As for U10A U11A C12G C13A, the “aptazyme ON/OFF ratio” value came out at 1.42.
For the variant U10A U11A C12G C13G, the “aptazyme ON/OFF ratio” value is 1.3.
In the case of U10G C12G, the “aptazyme ON/OFF ratio” value amounted to 1.12.
U10G C12U: the “aptazyme ON/OFF ratio” value was 1.58.
In the case of U10G C12A, the “aptazyme ON/OFF ratio” value came out at 1.41.
Consider U10G U11C C13U, for which the “aptazyme ON/OFF ratio” value was 1.04.
For U10G U11C C13G, the “aptazyme ON/OFF ratio” value worked out at 1.04.
Take U10G U11C C13A: the “aptazyme ON/OFF ratio” value amounted to 1.05.
The value for U10G U11G C12G C13A was 1.1; that for U10C U11C C12U C13A was 1.07; that for U10C U11C C12U C13G was 1.06.
Turning to U10C U11C C12U C13U, the “aptazyme ON/OFF ratio” value was determined as 1.02.
U10G U11A C12U C13A: the “aptazyme ON/OFF ratio” value is 1.28.
Regarding U10G U11A C12U C13U, the “aptazyme ON/OFF ratio” value was 1.36.
In the case of U10G U11A C12U C13G, the “aptazyme ON/OFF ratio” value is 1.2.
U10C: the “aptazyme ON/OFF ratio” value worked out at 3.69.
The value for U10G was 1.88.
In the case of U10C U11A C13A, the “aptazyme ON/OFF ratio” value is 1.25.
As for U10C U11A C13G, the “aptazyme ON/OFF ratio” value was 1.08.
Consider U10C U11A C13U, for which the “aptazyme ON/OFF ratio” value stood at 1.23.
Turning to U10A U11C C12U C13U, the “aptazyme ON/OFF ratio” value is 1.03.
On to U10A U11C C12U C13A, for which the “aptazyme ON/OFF ratio” value amounted to 1.06.
With U10A U11C C12U C13G, the “aptazyme ON/OFF ratio” value worked out at 1.08.
The value for U10C U11A C12G C13U was 1.37; that for U10C U11A C12G C13G was 1.25.
The result for U10C U11A C12G C13A reads 1.29; that for U10A U11C C12G C13A, 1.15.
The result for U10A U11C C12G C13G reads 1.29; that for U10A U11C C12G C13U, 1.23; that for U10C C12A C13G, 1.19.
For the variant U10C C12A C13U, the “aptazyme ON/OFF ratio” value was 1.18.
In the case of U10C C12A C13A, the “aptazyme ON/OFF ratio” value was 1.23.
Consider U10C U11C C12A C13G, for which the “aptazyme ON/OFF ratio” value came out at 1.17.
On to U10C U11C C12A C13U, for which the “aptazyme ON/OFF ratio” value was determined as 1.08.
Regarding U10C U11C C12A C13A, the “aptazyme ON/OFF ratio” value was found to be 1.19.
The value for U10A U11G C12U was 1.52.
The value for U10A U11G C12G was 1.55; that for U10A U11G C12A was 1.13.
In the case of U10G C12A C13G, the “aptazyme ON/OFF ratio” value came to 1.06.
Take U10G C12A C13U: the “aptazyme ON/OFF ratio” value came out at 1.19.
U10G C12A C13A: the “aptazyme ON/OFF ratio” value was 1.25.
Consider U10C U11A C12A, for which the “aptazyme ON/OFF ratio” value turned out to be 1.48.
With U10C U11A C12U, the “aptazyme ON/OFF ratio” value stood at 1.45.
The result for U10C U11A C12G reads 1.47; that for U10C U11G C12G C13G, 1.23; that for U10C U11G C12G C13A, 1.24.
As to U10C U11G C12G C13U, the “aptazyme ON/OFF ratio” value was determined as 1.11.
On to U10A U11C C12U, for which the “aptazyme ON/OFF ratio” value amounted to 1.04.
The value for U10A U11C C12A was 1.16; that for U10A U11C C12G was 1.15; that for U10A U11C C12A C13A was 1.17.
Turning to U10A U11C C12A C13U, the “aptazyme ON/OFF ratio” value amounted to 1.23.
Turning to U10A U11C C12A C13G, the “aptazyme ON/OFF ratio” value amounted to 1.28.
Regarding U10C U11G C13A, the “aptazyme ON/OFF ratio” value was 1.27.
For the variant U10C U11G C13U, the “aptazyme ON/OFF ratio” value came to 1.35.
The value for U10C U11G C13G was 1.22; that for U10A U11G C13U was 1.37; that for U10A U11G C13A was 1.33.
Take U10A U11G C13G: the “aptazyme ON/OFF ratio” value was found to be 1.19.
For U10C U11A C12U C13U, the “aptazyme ON/OFF ratio” value was found to be 1.19.
Take U10C U11A C12U C13A: the “aptazyme ON/OFF ratio” value turned out to be 1.38.
In the case of U10C U11A C12U C13G, the “aptazyme ON/OFF ratio” value was 1.32.
Turning to U10C U11C C12G C13G, the “aptazyme ON/OFF ratio” value came out at 1.16.
In the case of U10C U11C C12G C13A, the “aptazyme ON/OFF ratio” value worked out at 1.17.
Take U10C U11C C12G C13U: the “aptazyme ON/OFF ratio” value worked out at 1.11.
For the variant U10G U11G C12A, the “aptazyme ON/OFF ratio” value turned out to be 1.37.
In the case of U10G U11G C12G, the “aptazyme ON/OFF ratio” value is 1.4.
Regarding U10C C12G, the “aptazyme ON/OFF ratio” value turned out to be 1.36.
Regarding U10C C12A, the “aptazyme ON/OFF ratio” value stood at 1.51.
As for U10C C12U, the “aptazyme ON/OFF ratio” value came out at 2.09.
The value for U10C U11G C12U C13G was 1.33; that for U10C U11G C12U C13U was 1.28.
The value for U10C U11G C12U C13A was 1.36.
On to U10C U11G C12G, for which the “aptazyme ON/OFF ratio” value turned out to be 1.25.
Consider U10C U11G C12A, for which the “aptazyme ON/OFF ratio” value amounted to 1.1.
U10C U11G C12U: the “aptazyme ON/OFF ratio” value was determined as 1.31.
The result for U10G U11A C13G reads 1.12; that for U10G U11A C13A, 1.15; that for U10G U11A C13U, 1.05.
Regarding U10G U11C C12A C13G, the “aptazyme ON/OFF ratio” value came out at 1.12.
Regarding U10G U11C C12A C13U, the “aptazyme ON/OFF ratio” value came out at 1.4.
On to U10G U11C C12A C13A, for which the “aptazyme ON/OFF ratio” value was 1.23.
On to U10G C12U C13U, for which the “aptazyme ON/OFF ratio” value was 1.15.
The result for U10G C12U C13A reads 1.33.
Regarding U10G C12U C13G, the “aptazyme ON/OFF ratio” value was 1.28.
Turning to U10C C12G C13A, the “aptazyme ON/OFF ratio” value worked out at 1.24.
The value for U10C C12G C13U was 1.35.
The result for U10C C12G C13G reads 1.09; that for U10G C13G, 1.32.
Turning to U10G C13U, the “aptazyme ON/OFF ratio” value came to 1.5.
The value for U10G C13A was 1.13; that for U10A U11G C12U C13G was 1.24; that for U10A U11G C12U C13A was 1.62.
As for U10A U11G C12U C13U, the “aptazyme ON/OFF ratio” value is 1.27.
On to U10G C12G C13A, for which the “aptazyme ON/OFF ratio” value turned out to be 1.17.
As to U10G C12G C13G, the “aptazyme ON/OFF ratio” value was 1.09.
With U10G C12G C13U, the “aptazyme ON/OFF ratio” value was 1.34.
The value for U10G U11C C12G C13U was 1.48; that for U10G U11C C12G C13A was 1.28; that for U10G U11C C12G C13G was 1.14.
In the case of U10A U11A C12A C13A, the “aptazyme ON/OFF ratio” value came to 1.39.
Turning to U10A U11A C12A C13U, the “aptazyme ON/OFF ratio” value was found to be 1.47.
For U10A U11A C12A C13G, the “aptazyme ON/OFF ratio” value came out at 1.18.
Consider U10G U11C C12U C13G, for which the “aptazyme ON/OFF ratio” value is 1.27.
On to U10G U11C C12U C13A, for which the “aptazyme ON/OFF ratio” value was found to be 1.2.
The value for U10G U11C C12U C13U was 1.11; that for U10A U11A was 1.73; that for U10A U11G was 2.01.
Consider U10A U11C, for which the “aptazyme ON/OFF ratio” value amounted to 1.05.
The value for U10A U11C C13A was 1.02; that for U10A U11C C13U was 1.01; that for U10A U11C C13G was 1.04.
Take U10G U11C: the “aptazyme ON/OFF ratio” value was 1.03.
As for U10G U11G, the “aptazyme ON/OFF ratio” value was 1.22.
The result for U10G U11A reads 1.12.
U10A U11A C12U C13A: the “aptazyme ON/OFF ratio” value came out at 1.54.
Take U10A U11A C12U C13G: the “aptazyme ON/OFF ratio” value stood at 1.35.
For U10A U11A C12U C13U, the “aptazyme ON/OFF ratio” value came to 1.69.
Regarding U10G U11C C12U, the “aptazyme ON/OFF ratio” value is 1.08.
U10G U11C C12G: the “aptazyme ON/OFF ratio” value is 1.43.
For the variant U10G U11C C12A, the “aptazyme ON/OFF ratio” value stood at 1.51.
With U10C U11A C12A C13G, the “aptazyme ON/OFF ratio” value was 1.36.
For U10C U11A C12A C13U, the “aptazyme ON/OFF ratio” value was determined as 1.35.
The result for U10C U11A C12A C13A reads 1.37; that for U10C U11C C12G, 1.07.
Consider U10C U11C C12U, for which the “aptazyme ON/OFF ratio” value was 1.08.
For the variant U10C U11C C12A, the “aptazyme ON/OFF ratio” value worked out at 1.27.
U10A U11A C12G: the “aptazyme ON/OFF ratio” value was 1.83.
In the case of U10A U11A C12A, the “aptazyme ON/OFF ratio” value came out at 1.18.
As for U10A U11A C12U, the “aptazyme ON/OFF ratio” value was determined as 1.64.
Consider U10C U11C, for which the “aptazyme ON/OFF ratio” value was found to be 1.06.
Consider U10C U11A, for which the “aptazyme ON/OFF ratio” value stood at 1.47.
As for U10C U11G, the “aptazyme ON/OFF ratio” value stood at 1.57.
Turning to U10G U11A C12G C13A, the “aptazyme ON/OFF ratio” value was 1.16.
For the variant U10G U11A C12G C13U, the “aptazyme ON/OFF ratio” value was determined as 1.33.
For the variant U10G U11A C12G C13G, the “aptazyme ON/OFF ratio” value was 1.34.
On to U10C U11G C12A C13U, for which the “aptazyme ON/OFF ratio” value was found to be 1.3.
Regarding U10C U11G C12A C13G, the “aptazyme ON/OFF ratio” value is 1.31.
Take U10C U11G C12A C13A: the “aptazyme ON/OFF ratio” value was determined as 1.27.
Consider U10C U11C C13A, for which the “aptazyme ON/OFF ratio” value was 1.02.
On to U10C U11C C13G, for which the “aptazyme ON/OFF ratio” value was determined as 1.07.
Regarding U10C U11C C13U, the “aptazyme ON/OFF ratio” value was 1.03.
